Data published in the supplement of paper PMC7125110.
± gives the standard error. Fewer inactive variants are shown than the library holds.

B1: glmS ribozyme (parent)
chain: AUAAAAGCGCCAGAACUACAGAAAUGUAGUUGACGAGGAGGAGGUUUAUCGAAUUUUCGGCGGAUGCCUCCAAA

Key:
Settings in all cases: with glucosamine-6-phosphate
glucosamine-6-phosphate [1] = variants of: B1; test: self-cleavage kobs at 160 uM GlcN6P; higher = faster cleavage; RNA array
Outline: (§1)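 On sequenced MiSeq chips, barcoded ribozyme variants were made in situ by E. coli RNA polymerase and followed at 37 °C through a hybridised Cy3 probe. Glucosamine-6-phosphate was flowed in at 40 μM to 10 mM in HEPES/KCl/Mg(OAc)2 buffer. Exponential fits to normalised per-tile medians gave kobs, and weighted Michaelis–Menten fits gave kcat and KM.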

glucosamine-6-phosphate [2] = variants of: B1; test: self-cleavage kobs at 640 uM GlcN6P; higher = faster cleavage; RNA array
Outline: as §1

glucosamine-6-phosphate [3] = variants of: B1; test: self-cleavage kobs at 2500 uM GlcN6P; higher = faster cleavage; RNA array
Outline: as §1

glucosamine-6-phosphate [4] = variants of: B1; test: self-cleavage kobs at 10000 uM GlcN6P; higher = faster cleavage; RNA array
Outline: as §1

| Variant | self-cleavage kobs at 160 uM GlcN6P (glucosamine-6-phosphate [1]) | self-cleavage kobs at 640 uM GlcN6P (glucosamine-6-phosphate [2]) | self-cleavage kobs at 2500 uM GlcN6P (glucosamine-6-phosphate [3]) | self-cleavage kobs at 10000 uM GlcN6P (glucosamine-6-phosphate [4]) |
| --- | --- | --- | --- | --- |
| G9U U45C | < 1e-05 s⁻¹ | < 1e-05 s⁻¹ | < 1e-05 s⁻¹ | < 1e-05 s⁻¹ |
| G40C A42G A53C | 5.62e-05 ± 1.9e-05 s⁻¹ | 0.00018 ± 6.6e-05 s⁻¹ | 0.000564 ± 0.00013 s⁻¹ | – |
| A6G A36G U56A | < 1e-05 s⁻¹ | < 1e-05 s⁻¹ | < 1e-05 s⁻¹ | – |
| G13U U31C A33U G41A G43C | < 1e-05 s⁻¹ | – | – | – |
| G43C G60C C68U | < 1e-05 s⁻¹ | < 1e-05 s⁻¹ | – | – |
| G43U U47G U65C | < 1e-05 s⁻¹ | – | < 1e-05 s⁻¹ | – |
| A33C G40C A52G G63A | < 1e-05 s⁻¹ | < 1e-05 s⁻¹ | < 1e-05 s⁻¹ | – |
| C16A U49C | < 1e-05 s⁻¹ | < 1e-05 s⁻¹ | – | < 1e-05 s⁻¹ |
| A6G A14G C16U G32U G35C G41C C50A C71G | < 1e-05 s⁻¹ | – | < 1e-05 s⁻¹ | – |
| U45G G51C A64C | < 1e-05 s⁻¹ | < 1e-05 s⁻¹ | – | – |
| U31G C68G | 0.000192 ± 8.2e-05 s⁻¹ | – | 6.11e-05 ± 1.1e-05 s⁻¹ | 3.16e-05 ± 8.9e-06 s⁻¹ |
| G7C C8G A52G | < 1e-05 s⁻¹ | < 1e-05 s⁻¹ | < 1e-05 s⁻¹ | – |
| U31A G43A | < 1e-05 s⁻¹ | < 1e-05 s⁻¹ | – | 2.99e-05 ± 9.3e-06 s⁻¹ |
| C34A U57G | < 1e-05 s⁻¹ | – | – | < 1e-05 s⁻¹ |
| A42U U45C A52G G59U | < 1e-05 s⁻¹ | – | – | – |
| C34G A64U C67U | < 1e-05 s⁻¹ | < 1e-05 s⁻¹ | – | – |
| U45C C61A | < 1e-05 s⁻¹ | – | < 1e-05 s⁻¹ | < 1e-05 s⁻¹ |
| A6U U65G C70U | < 1e-05 s⁻¹ | < 1e-05 s⁻¹ | – | – |
| A6C C8U C10G A12U G38U | < 1e-05 s⁻¹ | < 1e-05 s⁻¹ | < 1e-05 s⁻¹ | – |
| A14U U31A U47A | 0.000611 ± 0.00016 s⁻¹ | 0.00172 ± 0.00055 s⁻¹ | – | – |
| G9C G38C G63U | < 1e-05 s⁻¹ | – | < 1e-05 s⁻¹ | – |
| C8G G38A C58G C67G | 0.000186 ± 5e-05 s⁻¹ | 0.000538 ± 0.00013 s⁻¹ | 0.000435 ± 0.00014 s⁻¹ | – |
| G13A C67U | 2.9e-05 ± 1.4e-05 s⁻¹ | 4.93e-05 ± 8.8e-06 s⁻¹ | 0.000122 ± 1.2e-05 s⁻¹ | 0.000405 ± 9e-05 s⁻¹ |
| A12G A39U A53C | < 1e-05 s⁻¹ | – | – | – |
| C11U A39G G43U C58G C70A | < 1e-05 s⁻¹ | – | < 1e-05 s⁻¹ | – |
| C11A U30C G62A | < 1e-05 s⁻¹ | < 1e-05 s⁻¹ | < 1e-05 s⁻¹ | – |

| Variant | self-cleavage kobs at 160 uM GlcN6P (glucosamine-6-phosphate [1]) | self-cleavage kobs at 640 uM GlcN6P (glucosamine-6-phosphate [2]) | self-cleavage kobs at 2500 uM GlcN6P (glucosamine-6-phosphate [3]) | self-cleavage kobs at 10000 uM GlcN6P (glucosamine-6-phosphate [4]) |
| --- | --- | --- | --- | --- |
| C34A C58A | < 1e-05 s⁻¹ | < 1e-05 s⁻¹ | < 1e-05 s⁻¹ | < 1e-05 s⁻¹ |
| U45C A48U U69C | < 1e-05 s⁻¹ | < 1e-05 s⁻¹ | – | – |
| G9C G37A | < 1e-05 s⁻¹ | < 1e-05 s⁻¹ | < 1e-05 s⁻¹ | – |
| G13U A14U C58A C67U | 5.09e-05 ± 1.8e-05 s⁻¹ | 0.000194 ± 4.3e-05 s⁻¹ | 0.000334 ± 7.5e-05 s⁻¹ | – |
| C34U U47G | < 1e-05 s⁻¹ | < 1e-05 s⁻¹ | – | – |
| A33G G37A A39C G63C C68G | < 1e-05 s⁻¹ | < 1e-05 s⁻¹ | – | – |
| A6G G40C C50G | < 1e-05 s⁻¹ | – | < 1e-05 s⁻¹ | – |
| G7U U30C G32A | < 1e-05 s⁻¹ | – | – | < 1e-05 s⁻¹ |
| G9U A48U U57A | < 1e-05 s⁻¹ | – | < 1e-05 s⁻¹ | < 1e-05 s⁻¹ |
| A6C G37U C50U G60C | < 1e-05 s⁻¹ | < 1e-05 s⁻¹ | – | – |
| A36C G40A | < 1e-05 s⁻¹ | < 1e-05 s⁻¹ | – | < 1e-05 s⁻¹ |
| C16G U46A C50A U69G | 0.000562 ± 0.00018 s⁻¹ | – | – | – |
| A12C G29C A52C A64C | < 1e-05 s⁻¹ | < 1e-05 s⁻¹ | – | – |
| G7A G37A | < 1e-05 s⁻¹ | < 1e-05 s⁻¹ | – | < 1e-05 s⁻¹ |
| A12U G41U U45A | 0.00011 ± 2.8e-05 s⁻¹ | 0.000308 ± 5.9e-05 s⁻¹ | 0.000989 ± 0.00025 s⁻¹ | – |
| C10G G13A U31A C50A G59U | < 1e-05 s⁻¹ | – | – | – |
| A15C U30G U31G | 0.00201 ± 0.00083 s⁻¹ | 0.0146 ± 0.0069 s⁻¹ | 0.00946 ± 0.0035 s⁻¹ | – |
| G44C C50U U54C | < 1e-05 s⁻¹ | < 1e-05 s⁻¹ | – | – |
| G7A U30G | < 1e-05 s⁻¹ | – | < 1e-05 s⁻¹ | – |
| G35C U49G | < 1e-05 s⁻¹ | < 1e-05 s⁻¹ | < 1e-05 s⁻¹ | – |
| G32U G60C | < 1e-05 s⁻¹ | < 1e-05 s⁻¹ | < 1e-05 s⁻¹ | – |
| U45C U47C G62U C68U | < 1e-05 s⁻¹ | – | – | – |
| G13U A36U G43A G51A C67G C70U | < 1e-05 s⁻¹ | – | < 1e-05 s⁻¹ | – |
| G13C C50G | 0.00119 ± 0.00034 s⁻¹ | – | – | – |
| C34A G41C | < 1e-05 s⁻¹ | < 1e-05 s⁻¹ | < 1e-05 s⁻¹ | < 1e-05 s⁻¹ |
